In the data set the target is T1, fluorogenic APP-based peptide MCA-SEVNLDAEFK(DNP)-CONH2.
T1 chain: SEVNLDAEFK

B1: BACE455 (protein)
chain: ETDEEPEEPGRRGSFVEMVDNLRGKSGQGYYVEMTVGSPPQTLNILVDTGSSNFAVGAAPHPFLHRYYQRQLSSTYRDLRKGVYVPYTQGKWEGELGTDLVSIPHGPNVTVRANIAAITESDKFFINGSNWEGILGLAYAEIARIIGGIDHSLYTGSLWYTPIRREWYYEVIIVRVEINGQDLKMDCKEYNYDKSIVDSGTTNLRLPKKVFEAAVKSIKAASSTEKFPDGFWLGEQLVCWQAGTTPWNIFPVISLYLMGEVTNQSFRITILPQQYLRPVEDVATSQDDCYKFAISQSSTGTVMGAVIMEGFYVVFDRARKRIGFAVSACHVHDEFRTAAVEGPFVTLDMEDCGYNIPQTDESTLMTIAYVMAAICALFMLPLCLMVCQWRCLRCLRQQHDDFADDISLLK
Protein B1 returned a BACE activity over time: mean fluorescence signal of Substrate V cleavage by HEK293 membrane extract, 15 min (mean fluorescence signal) of 125; a BACE activity over time: mean fluorescence signal of Substrate V cleavage by HEK293 membrane extract, 60 min (mean fluorescence signal) of 195; a BACE activity over time: mean fluorescence signal of Substrate V cleavage by HEK293 membrane extract, 120 min (mean fluorescence signal) of 228; a BACE activity over time: mean fluorescence signal of Substrate V cleavage by HEK293 membrane extract, 240 min (mean fluorescence signal) of 239.

The values above are taken from patent US20070142277.
